Reference: publication PMC8011926 (Journal of Medicinal Chemistry, 2020)
Non-standard residues stand in square brackets, D forms with d. Residues, ends and D or L forms follow the SMILES beside them. No end group written: not given here.

Each molecule was assayed against N/OFQ peptide (NOP) receptor fused to Renilla luciferase (UniProt P41146).
Sequence of N/OFQ peptide (NOP) receptor fused to Renilla luciferase (P41146 whole entry, the tested form may be a part): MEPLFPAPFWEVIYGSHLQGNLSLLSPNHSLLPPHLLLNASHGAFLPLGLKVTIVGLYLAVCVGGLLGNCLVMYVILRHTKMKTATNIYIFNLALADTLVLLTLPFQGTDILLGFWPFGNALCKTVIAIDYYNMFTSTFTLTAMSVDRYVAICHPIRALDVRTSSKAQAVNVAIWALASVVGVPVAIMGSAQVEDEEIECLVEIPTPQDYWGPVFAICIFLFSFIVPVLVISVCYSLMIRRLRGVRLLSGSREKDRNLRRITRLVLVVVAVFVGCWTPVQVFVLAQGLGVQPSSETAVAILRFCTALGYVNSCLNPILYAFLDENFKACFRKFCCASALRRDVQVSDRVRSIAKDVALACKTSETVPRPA

Row | Molecule | concentration ratio (EC50 of the ligand / EC50 of N/OFQ(1–13)-NH2) for promoting the NOP/G protein interaction (BRET, membranes); concentration–response curve incomplete
1 | FGGATGARKSARK-NH2 [[Ala^4]N/OFQ(1–13)-NH2] | 1000

Biological target: N/OFQ peptide (NOP) receptor fused to Renilla luciferase (UniProt P41146)
Remark: another data set of the same source

Row | Molecule | pEC50 for promoting the NOP/G protein interaction (BRET, membranes with NOP-RLuc and Gβ1-RGFP) | pEC50 for promoting the NOP/β-arrestin 2 interaction (BRET, cells with NOP-RLuc and β-arrestin 2-RGFP)
2 | [Cha^1]N/OFQ(1–13)-NH2 (peptide) | 8.93 -log10 M | 8.28 -log10 M
3 | FGGFVGARKSARK-NH2 [[Val^5]N/OFQ(1–13)-NH2] | 7.94 -log10 M | 7.38 -log10 M
4 | F[dA]GFTGARKSARK-NH2 (N-terminus assumed; SMILES C[C@H](NC(=O)CNC(=O)[C@@H](NC(=O)[C@H](Cc1ccccc1)NC(=O)CNC(=O)[C@@H](C)NC(=O)[C@@H](N)Cc1ccccc1)[C@@H](C)O)C(=O)N[C@@H](CCCNC(=N)N)C(=O)N[C@@H](CCCCN)C(=O)N[C@@H](CO)C(=O)N[C@@H](C)C(=O)N[C@@H](CCCNC(=N)N)C(=O)N[C@@H](CCCCN)C(N)=O) [[D-Ala^2]N/OFQ(1–13)-NH2] | 7.57 -log10 M | 7.16 -log10 M
5 | FGGWTGARKSARK-NH2 [[Trp^4]N/OFQ(1–13)-NH2] | 7.63 -log10 M | 7.17 -log10 M
6 | FGGFNGARKSARK-NH2 [[Asn^5]N/OFQ(1–13)-NH2] | 8.03 -log10 M | 7.56 -log10 M

Biological target: N/OFQ peptide (NOP) receptor fused to Renilla luciferase (UniProt P41146)
Remark: another data set of the same source

Row | Molecule | pEC50 for promoting the NOP/G protein interaction (BRET, membranes with NOP-RLuc and Gβ1-RGFP) | pEC50 for promoting the NOP/β-arrestin 2 interaction (BRET, cells with NOP-RLuc and β-arrestin 2-RGFP)
7 | [AC5C^11]N/OFQ-NH2 (peptide) | 8.61 -log10 M | 8.22 -log10 M
8 | [AC3C^7]N/OFQ-NH2 (peptide) | 7.67 -log10 M | 7.56 -log10 M
9 | [Aib^11]N/OFQ-NH2 (peptide) | 8.35 -log10 M | 8.21 -log10 M
10 | [Aib^7]N/OFQ-NH2 (peptide) | 8.92 -log10 M | 8.4 -log10 M
11 | [AC5C^7]N/OFQ-NH2 (peptide) | 8.1 -log10 M | 8.1 -log10 M

These molecules were tested against T1, mu opioid receptor (mu-RLuc/Gβ1-RGFP) (Homo sapiens, UniProt P35372).
T1 construct: expressed in transfected cells; host or cells: SH-SY5Y (enriched plasma membranes)
Type: biochemical
Description: For this study, human embryonic kidney (HEK293) cells, permanently co-expressing the different pairs of fusion proteins NOP-RLuc/Gβ1-RGFP and NOP-RLuc/β-arrestin 2-RGFP, and SH-SY5Y cells stably, co-expressing the different pairs of fusion proteins mu-RLuc/Gβ1-RGFP and mu-RLuc/β-arrestin 2-RGFP or delta-RLuc/Gβ1-RGFP and delta-RLuc/β-arrestin 2-RGFP, were used. Cells were prepared and cultured, as described previously.[19],[23] […] The protein concentration in membrane preparations was determined using the QPRO-BCA kit (Cyanagen Srl, Bologna, IT) and the Ensight (PerkinElmer, Waltham, USA) in the spectrophotometer mode.
Luminescence in membranes was recorded in 96-well untreated white opaque microplates, while in whole cells, it was recorded in 96-well sterile poly-D-lysine-coated white opaque microplates (PerkinElmer, Waltham, MA, USA) using the luminometer Victor 2030 (PerkinElmer, Waltham, MA, USA). […] Coelenterazine at a final concentration of 5 μM was injected 15 min prior to reading the cell plate. Different concentrations of ligands in 20 μL of PBS–BSA 0.01% were added and incubated 5 min before reading luminescence. […] The BRET ratio was measured 15 min after agonist injection. […]
The pharmacological terminology adopted in this paper is consistent with IUPHAR recommendations.[68] All data are expressed as the mean ± sem of five independent experiments made in duplicate. […]

T1 sequence (P35372 whole entry, species assumed): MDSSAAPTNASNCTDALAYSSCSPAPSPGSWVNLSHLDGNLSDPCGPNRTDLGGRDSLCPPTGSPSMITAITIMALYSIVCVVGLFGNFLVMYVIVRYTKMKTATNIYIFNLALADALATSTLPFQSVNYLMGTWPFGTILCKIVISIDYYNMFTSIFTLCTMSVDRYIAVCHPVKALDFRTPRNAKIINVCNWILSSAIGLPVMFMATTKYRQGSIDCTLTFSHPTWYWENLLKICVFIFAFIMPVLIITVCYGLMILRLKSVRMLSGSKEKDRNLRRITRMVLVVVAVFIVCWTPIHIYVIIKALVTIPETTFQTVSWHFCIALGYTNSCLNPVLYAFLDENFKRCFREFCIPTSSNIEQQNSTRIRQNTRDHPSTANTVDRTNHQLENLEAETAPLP

Row | Molecule | mu/G protein pEC50 (CL95%)
12 | CSCC[C@H](NC(=O)[C@H](CC(C)C)NC(=O)[C@H](Cc1c[nH]cn1)NC(=O)[C@H](Cc1ccccc1)NC(=O)[C@@H](CCSC)NC(=O)[C@@H](N)Cc1ccc(O)cc1)C(=O)N[C@@H](CC(=O)O)C(N)=O [Deltorphin A] (H-Y[dM]FHLMD-NH2) | crc incomplete
